From patent US20220363777A1 (GSP ENTERPRISE, published 2022) come the findings set out here.

The target in test [1] is T1, extracellular domain of human Cripto-1, soluble form, with N-terminal His-tag (human, limits assumed).
T1 construct: Prepared in soluble form by the method of Alam et al., Int J Mol Sci 2018; also called purified human Cripto-1; CR-1
T1 chain: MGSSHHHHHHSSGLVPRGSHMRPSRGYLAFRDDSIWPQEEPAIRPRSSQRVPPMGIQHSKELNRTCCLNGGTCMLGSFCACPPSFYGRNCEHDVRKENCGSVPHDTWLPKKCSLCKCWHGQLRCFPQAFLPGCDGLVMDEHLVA
As to the kind of experiment: screening of a phage-displayed human antibody library. As for the experimental part: The extracellular domain of human Cripto-1 contains the amino acid sequence represented by SEQ ID NO: 11, and has a His-tag sequence having the amino acid sequence represented by SEQ ID NO: 12 at its N-terminus. The extracellular domain of human Cripto-1 was prepared in its soluble form in accordance with the method disclosed in Alam. et. al., Int J Mol Sci. 2018, 26; 19 (11). The antibody library used as a screening target is described in Sakai, K. et al., Biochemistry 46 (1): 253-62, and the subclass of the antibody is IgG.

The target of test [2] is T2, human Cripto-1 in human cancer tissue (tissue array BCN801) (human, UniProt P13385 31-150, GPI-anchor (thought to be bound to the cell membrane surface by GPI-anchors)).
T2 construct: whole, on cells; Endogenous protein detected by immunostaining of pancreas, thyroid, prostate, stomach, cervical, colorectal and breast cancer tissue; also called CR-1
T2 sequence (looked up): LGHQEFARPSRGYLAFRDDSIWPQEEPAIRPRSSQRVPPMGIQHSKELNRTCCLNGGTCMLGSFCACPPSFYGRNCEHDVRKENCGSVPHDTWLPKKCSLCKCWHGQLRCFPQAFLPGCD
The test can be described thus: immunostaining of a human cancer tissue array, ALEXA568-labeled anti-human IgG secondary antibody. As to the method: Immunostaining was performed on a human cancer tissue array (BCN801, US Biomax Inc.). The #35 clone was used as a primary antibody. ALEXA568-labeled anti-human IgG goat antibody (Invitrogen) was used as a secondary antibody to detect human Cripto-1 in each cancer tissue (pancreas cancer tissue, thyroid gland cancer tissue, prostate cancer tissue, stomach cancer tissue, cervical cancer tissue, colorectal cancer tissue, and breast cancer tissue). These cancer tissues contained cancer stem cells as well as cancer cells, and Cripto-1 was thought to be bound to the surface of the cell membrane of the cancer stem cells by GPI-anchors. In a negative control experiment, the signal background was confirmed by using only the secondary antibody. FIGS. 3 to 5 show the results.

B1: #35 clone antibody (human-derived anti-human Cripto-1 monoclonal antibody) (antibody, V domains shown)
VH: QVQLQQSGPGLVKPSQTLSLTCAISGNSVSSNSAAWNWIRRSPSRGLEWLGRTYYRSKWYNDYAVSVKSRITIKPDTSKNQFSLQLNSVTPEDTAMYYCARGFCSGGRCYSFDYWGPGTLVTVSS
VL: QSVLTQPASVSGSPGQSITISCTGTDSDVGAYGSASWYRHSPGKAPQLIIYDVTNRPSGVSNRFYGSKSGNTASLTISGLQAEDEADYYCQAWDSGIHVVFGGGTQLTVLG
notes: The library subclass is IgG; also called Clone #35
Turning to B1, the binding result in test [1] and in test [2] was “binds” in each case.
